Several values for one entry are separate records, joined by “and”; a condition that tells them apart may be missing. Equal values may be shown once.
What was measured:
[1] = target: TatB, wild type (E. coli) (UniProt P69425); assay: cross-linking
TatB(L54Bpa) (E. coli) = TatB(L54Bpa) (E. coli) (UniProt P69425); assay: cross-linking

“pSufI(L328Bpa) (from UniProt P26648 1-470) (natural protein)” was tested, and the percent of the vesicle-associated pSufI in the TatB adduct [1] was 15%.

For “TatB(L54Bpa) (from UniProt P69425 1-171) (natural protein)”, the stoichiometry N (TatB(L54Bpa) (E. coli)) was 2 and 3.

Source: publication PMC2993744
